{"source": "paper PMC12500691", "target": "Spike", "experiment": "SPR"}
{"substance": "human angiotensin converting enzyme 2 (from UniProt Q9BYF1-1 20-611) (receptor)", "values": [{"measurement": "Kd", "result": 370, "unit": "nM"}]}
